Entries after “also recorded” stand apart in the source; their conditions may differ.
Key:
33 normal human tissues = assay: Immunohistochemistry on a normal tissue microarray (specificity); settings: 33 normal tissues, 2-3 human donors per tissue
Protocol: The specificity of the chAB2 antibody for Sp17 was determined with immunohistochemistry on a normal tissue microarray, which consisted of 33 normal tissues obtained from 2-3 human donors per tissue. The normal tissues included brain, eye, adrenal gland, hypophyseal, thyroid, parathyroid, tonsil, thymus, spleen, heart, lung, larynx, esophagus, stomach, small intestine, colon, liver, pancreas, salivary gland, kidney, bone, skeletal, skin, peripheral nerve, mesothelial, breast, ovary, endometrium, cervix, testis, and prostate.

Sp17 protein = target: T1, Sp17 protein (Homo sapiens, UniProt Q15506); assay: Western blot detection of Sp17 protein; assay type: binding
T1 sequence (Q15506 1-151): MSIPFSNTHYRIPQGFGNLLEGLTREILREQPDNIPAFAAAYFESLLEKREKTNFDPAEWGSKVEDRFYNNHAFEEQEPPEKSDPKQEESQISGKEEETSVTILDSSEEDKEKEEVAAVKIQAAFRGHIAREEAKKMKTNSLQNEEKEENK
Description: The nucleotide sequences encoding the VH and VL regions of Example 1 were cloned into a […] heavy chain gene and a mouse kappa light chain gene, respectively, and expressed in CHO-S cells to produce a mouse-human chimeric antibody, which was named chAB2. Successful generation of the antibody was confirmed by SDS-PAGE and western blotting using anti-mouse heavy and light chain antibodies and recombinant Sp17 protein (FIGS. 2 & 3).
The VH and VL nucleotide sequences of Example 1 were cloned into a human IgG4 heavy chain gene and a human kappa light chain gene, respectively. A Ser228Pro mutation was introduced in the heavy chain to reduce non-specific Fc receptor gamma binding. The resultant antibody was named SP17-AB2. Successful cloning was confirmed by sequence analysis. The amino acid sequences of the heavy chain and light chain are shown in Table 4, and the Ser228Pro mutation is underlined in SEQ ID NO: 11.

binding to Sp17 protein by western blot (Sp17 protein): Sp17 protein was detected
B1: chAB2: mouse-human chimeric anti-Sp17 monoclonal antibody; human VH/VL (SEQ ID NO: 3, 4) with mouse IgG2a heavy and mouse kappa light chain (antibody, V domains shown)
VH: QVQLQQSGAEVKKPGSSVKVSCKASGGTFSSYAISWVRQAPGQGLEWMGRIIPILGIANYAQKFQGRVTITADKSTSTAYMELSSLRSEDTAVYYCARPSEEVVAAYGAFDIWGQGTTVTVSS
VL: EIVLTQSPLSLPVRPGEPASISCRASQSLLRSDGFNYLDWYLQKPGQSPQLLVYLGSNRASGVPDRFSGSGSGTDFTLKISRVEAEDVGVYYCMQAVQTPYIFGQGTKLEIK
modifications: mouse IgG2a heavy and mouse kappa constant regions
binding to normal tissues (cross-reactivity) (33 normal human tissues): bound to testis and did not bind to normal tissues; also recorded: lack detectable cross-reactivity

From patent US12624097B2, “Nucleic acids, vectors, and cells that encode anti-Sp17 antibodies and other Sp17 binding proteins” (Medicovestor, Inc., priority 2023, dated 2026)
